Experiments:
[1] = molecular target: MVM capsid protein VP2 (stably expressed in human fibroblasts, HF-VPs) (Minute Virus of Mice, prototype strain (MVMp)); assay: cross-linking; clarified cell homogenates in HNEM buffer (50 mM Hepes pH 8.0, 150 mM NaCl, 2 mM MgCl2, 1 mM EDTA) cross-linked with 10 mM dimethyl suberimidate (DMS), 10 min at 20°C; 5% SDS-PAGE and Western blot with the α-VPs antibody; MF-VPs quiescent by serum starvation (G0) or 8 h after serum addition (S); HF-VPs at hours after release of density arrest (G1)
[2] = molecular target: MVM capsid protein VP2 (stably expressed in mouse fibroblasts, MF-VPs) (Minute Virus of Mice, prototype strain (MVMp)); assay: as above

“MVM capsid protein VP2 (stably expressed in human fibroblasts, HF-VPs) (natural protein)” gave a stoichiometry N [1] of 3.
For “MVM capsid protein VP2 (stably expressed in mouse fibroblasts, MF-VPs) (natural protein)”, the stoichiometry N [2] was 3.
